Values quoted from earlier work as cited in paper PMC9528908.

Tests used:
Glu66 = Glu66 (UniProt position 148, FTKKMEENAKK); assay: stability
Asp66 = Asp66 (UniProt position 148, FTKKMDENAKK); assay: stability

Substance: Staphylococcal nuclease (SNase) V66E variant (Staphylococcus aureus; V66E)
- pKa (Glu66): 8.73–9.28

Substance: Staphylococcal nuclease (SNase) V66D variant (Staphylococcus aureus; V66D)
- pKa (Asp66): 8.45–9.03
